The nanobody polyreactivity screen of Harvey et al. (2022)

Test: yeast display, Sf9 membrane polyspecificity reagent, FACS + sequencing; frameworks hold sequencing errors
Procedure, shortened: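 Sorting gates, low and high (top ~1%), were placed on anti-HA fluorescence to track expression and on streptavidin fluorescence to track reagent binding. A clone's polyreactivity label is taken from the gate it came out of. The reagent was 10% biotinylated, detergent-solubilized Sf9 membrane, applied for 1 hour at 4 °C to galactose-induced yeast display cells.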

Sequence	polyreactivity (PSR sort gate)
QVQLVESGGGLVQAGGSLRLSCAASGFTFWRYAMGWYRQAPGKERELVAAISRSGGGTYYADSVKGRFTISRDNAKNTVYLQMNSLKPEDTAVYYCAAALYKGSGELDYWGQGTQVTVSS	high polyreactivity
QVQLVESGGGLVQAGGSLRLSCAASGFTFWRYAMGWYRQAPGKERELVAAISWRGSSTYYADSVKGRFTISRDNAKNTVYLQMNSLKPEDSAVYYCAARYITFNGYGYGYWGQGTQVTVSS	high polyreactivity
QVQLVESGGGLVQAGGSLRLSCAASGFTFWRYAMGWYRQAPGKERELVAAISYSGGSTYYADSVKGRFTISRDYAKNTVYLQMNSLKPEDTAVYYCNAETGYGVYRTKYGYWGQGTQVTVSS	high polyreactivity
QVQLVESGGGLVQAGGSLRLSCAASGFTFWRYGMGWYRQAPGKERELVASITSGGGTNYADSVKGRFTISRDNAKNTVYFQMNSLKPEDTAVYYCAATYPYSWVYSGYYYWGQGTQVTVSS	low polyreactivity
QVQLVESGGGLVQAGGSLRLSCAASGFTFWTYAMGWYRPAPGKERELVAAIDSGVSTYYADSVKGRFTISRDNAKNTVYLQMNSLKPEDTAVYYCNAGPSVTSGYDYDYWGQGTQVTVSS	low polyreactivity
QVQLVESGGGLVQAGGSLRLSCAASGFTFWTYAMGWYRQAPGKERELVAAIDSGGSTYYADSVKGRFTISRDNAKNTVYLQMNSLKPEDTAVYYCAKDVLAPYSRHDYWGQGTQVTVSS	low polyreactivity
QVQLVESGGGLVQAGGSLRLSCAASGFTFWTYAMGWYRQAPGKERELVAAIDSGGSTYYADSVKGRFTISRDNAKNTVYLQMNSLKPEDTAVYYCNAGPSVTSGYDYDYWGQGTQVTVSS	low polyreactivity
QVQLVESGGGLVQAGGSLRLSCAASGFTFWTYDMGWYRQAPGKERELVAAISTSGGSTYYADSVKGRFTISRDNAKNTVYLQMNSLKPEDTAVYYCAAYAIGEHFRARYGYWGQGTQVTVSS	high polyreactivity
QVQLVESGGGLVQAGGSLRLSCAASGFTFWWYTMGWYRPAPGKERELVAAITSGGSTYYADSVKGRFTISRDNAKNTVYLQMNSLKPEDTAVYYCNVVPYLYGLDGYDYWGQGTQVTVSS	high polyreactivity
QVQLVESGGGLVQAGGSLRLSCAASGFTFWYYAMGWYRQAPGKERELVAAIDSGVTRTYYADSVKGRFTISRDNAKNTVYLQMNSLKPEDTAVYYCNADFVWRGDYWGQGTQVTVSS	low polyreactivity
QVQLVESGGGLVQAGGSLRLSCAASGFTFWYYAMGWYRQAPGKERELVARITSRGADTYADSVKGRFTISRDNAKNTVYLQKNSLKPEDTAVYYCNAEFGRARDDDYWGQGTQVTVSS	low polyreactivity
QVQLVESGGGLVQAGGSLRLSCAASGFTFYANAMGWYRQAPGKERELVAAIDESGTSTNYADSVKGRFTISRDNAKNTVYLQMNSQKPEDTAVYYCAADGNSTGVYLDGGEGFAYDYWGHGTQVTVSS	low polyreactivity
QVQLVESGGGLVQAGGSLRLSCAASGFTFYDNAMGWYRQAPGKERELVAAISSSGTRTYYADSVKGRFTISRDNAKNTVYLQMNSLKPEDTAVYYCAARGQAYSGDRMYYWGQGTQVTVSS	high polyreactivity
QVQLVESGGGLVQAGGSLRLSCAASGFTFYGNAMGWYRQAPGKERELVASISTYYADSVKGRFTISRDNAKNTVYLQMNSLKPEDTAVYYCAATHYDRTYYVIYDYWGQGTQVTVST	low polyreactivity
QVQLVESGGGLVQAGGSLRLSCAASGFTFYGYAMGWYRQAPGKERELVAAINSAGRTYYADSVKGRFTISRDNAKNTVYLQMNSLKPEDTAVYYCASKYVRGHGYWGQGTQVTVSS	high polyreactivity
QVQLVESGGGLVQAGGSLRLSCAASGFTFYGYAMGWYRQAPGKERELVAAISSRGSRTYYADSVKGRFTISRDNAKNTGYLQMNSLKPEDTAFYYCAVDKAITQGLYDYWGQGTQVTVSS	high polyreactivity
QVQLVESGGGLVQAGGSLRLSCAASGFTFYGYAMGWYRQAPGKERELVAAISSSGGRTYYADSVKGRFTISRDNAKNTVYLQMNSLKPEDTAVYYCAADYTSRDYYYWGQGTQVTVSS	high polyreactivity
QVQLVESGGGLVQAGGSLRLSCAASGFTFYGYAMGWYRQAPGKERELVAAISSSGTSTYYADSVKGRFTISRDNEKNTVYLQMNSLKPEDTAVYYCAKDFYRRYYSWGQGTQVTVSS	high polyreactivity
QVQLVESGGGLVQAGGSLRLSCAASGFTFYHNAMGWYRHAPGKERELVATITARGGRTYYADSVKGRFTISRDNAKNTVYLQMISLKPEDTAVYYCNVKASRGYTYEYDYWGQGTQVTVSS	high polyreactivity
QVQLVESGGGLVQAGGSLRLSCAASGFTFYIYAMGWYRQAPGKERELVAAITTSGDSTYYADSVKGRFTISRDNAKNTVYLQMNSLKPEDTAVYYCAAEYWYTYSWGQGTQVTVLS	low polyreactivity
QVQLVESGGGLVQAGGSLRLSCAASGFTFYKNAMGWYRQAPGKERELVAAISRSGGSTYYADSVKGRFTISRDNAKNTVYLKMNSLKPEDTAVYYWAKGYCNFYRSDYWGQGTHVTVSS	high polyreactivity
QVQLVESGGGLVQAGGSLRLSCAASGFTFYKYAMGWYRQAPGKEREFVASITVRTGSTSYADSVKGRFTISRDNAKNTVYLQMNSLKPEDTAVYYCAAETYYYSWYYLGYTYDYWGHGTQVTVSS	high polyreactivity

Sequence	polyreactivity (PSR sort gate)
QVQLVESGGGLVQAGGSLRLSCAASGFTFYKYTMGWYRQAPGKERELVAAISARGGSTYYADSVKGRFTISRDNAKNTVYLQMNSLKPEDTAVYYCAADYWRTYGLGYDYWGQGTQVTVSS	high polyreactivity
QVQLVESGGGLVQAGGSLRLSCAASGFTFYKYVMGWYRQAPGKERELVAAITTSGGSTYFADSVKGRFTISRDNAKNSVYLEMNSLKPEDTAVYYCNARSLHTSEGDYWGQGSQVTVSS	low polyreactivity
QVQLVESGGGLVQAGGSLRLSCAASGFTFYLNAMGWYRQAPGKERELVAAISYSDGSTYYADSVKGRFTISRDNAKNTVYLQMNRLKPEDTAVYFCAADTTDPGGAYQLMDYWGQGTQVTVSS	high polyreactivity
QVQLVESGGGLVQAGGSLRLSCAASGFTFYLYAMGWYRHAPGKERELVAAISVDGGSTYYADSVKGRFTISRDNAKNTVYLQMNSLKPEDTAVYYCAARLYGRYRYDYWGQGTQVTVSS	low polyreactivity
QVQLVESGGGLVQAGGSLRLSCAASGFTFYLYTMGWYRQAPGKERELVAAISWRGGGTYYADSVKGRFTISRDNAKNTVYLQMNSLKPEDTAVYYCATVRTYARNDYWGQGTQVTVSS	high polyreactivity
QVQLVESGGGLVQAGGSLRLSCAASGFTFYLYTMGWYRQAPGNESELVATITSDGGTNYADSVKGRFTISRDNAKNTVYLQMNSLKPEDTAVYYFNAASRRGSRKQAKYDYWGQGTQVTVSS	low polyreactivity
QVQLVESGGGLVQAGGSLRLSCAASGFTFYPYAMGWYRQAPGKERELVASISSRGGSRTYYADSVKGRFTISRVNEKNTVYLQMNSLKTEDSAVYYCAATYVGLYRGYFTLTYYYWGQGTPVTVSS	high polyreactivity
QVQLVESGGGLVQAGGSLRLSCAASGFTFYPYTMGWYRQAPGKERELVADITYDSTYYADSVKGRFTISRDNAKNTVYLQMNSLKPEDTAVYYCNATGYSVSRSAYWYGWYDYWGQGTQVTVSS	low polyreactivity
QVQLVESGGGLVQAGGSLRLSCAASGFTFYQNAMGWYRQAPGKEREFVAAISRRGGSTYYADSVKGRFTSSRDNAKNTVYLQMNSLKPEDTAVYYCAADYKRKSDGDYWGQGTQVTVSS	high polyreactivity
QVQLVESGGGLVQAGGSLRLSCAASGFTFYQYAMGWYRQAPGKEREFVAAISSSGSSTYYADSVKGRFTISRDNAKNTVYLQMNSLKPEDTAVYYCNAYFRNWRYSPGGYWGQGTQVTVSS	high polyreactivity
QVQLVESGGGLVQAGGSLRLSCAASGFTFYRNAMGWSRQAPGKERELVARIRGTGGRTYYADSVKGRFTISRDNAKNTVYLQMNSLKPEDSAVYYCARRYHYSLYGYWGQGTQVTVSS	high polyreactivity
QVQLVESGGGLVQAGGSLRLSCAASGFTFYRNAMGWYRKAPGKERELVAAISWSGDSTYYADSVKGRFTISRDNAKNTVYLQMNSLKPEDTAVYYCAKSRYTALTNHWSHDYWGQGTQVTVSS	low polyreactivity
QVQLVESGGGLVQAGGSLRLSCAASGFTFYRNAMGWYRQAPGKERELVAGISKRGGSTYYADSVKGRFTISRDNAKNTVYLLMNSLKPEDTAVYYCARGGYPGSAEYDYWGQGTQVTVSS	high polyreactivity
QVQLVESGGGLVQAGGSLRLSCAASGFTFYRNAMGWYRQAPGKERELVARISRGGSTNYADSVKGRFTISRDNAKNTVYLQMNSLKPEDTAVYYCNRDYYVGRYDYWGQGTQVTVSS	high polyreactivity
QVQLVESGGGLVQAGGSLRLSCAASGFTFYRNTMGWYRQAPGKERELVATITFSGTRTYYADSVKGRFTISRDNAKNTVYLQMNSLKPEDTAVYYCAADRPRRTKWGGGGYYWGQGTQVTVSS	high polyreactivity
QVQLVESGGGLVQAGGSLRLSCAASGFTFYRYALGWYRQAPGKERELVAAISQRGGTTYYADSVKGRFTISRDNAKNTVYLQMNSLKPEDTAVYYCAKDRYYYPGNYWGQGTQVTVSS	high polyreactivity
QVQLVESGGGLVQAGGSLRLSCAASGFTFYRYAMGWYRQAPGKERELVAAISRSGGSTSYADSVKGRFTISRDNAKNTLYLQMNSLTPEDTEVYYCATRNWYSLKDYYYWGQGTQVTVSS	high polyreactivity
QVQLVESGGGLVQAGGSLRLSCAASGFTFYRYAMGWYRQAPGKERELVAAITASGGSTYYADSVKGRFTISRDNAKNTVYLQMNSLKPEDTAVYYCAKGWVSYWRYKNEYWGQGTQVTVSS	high polyreactivity
QVQLVESGGGLVQAGGSLRLSCAASGFTFYRYAMGWYRQAPGKERELVAAITSAGSTYYADSVKGRFTISRDNAKNTVYLQMNSLKPEDTAVSYCNAVGYFSYRDRDSEYYYNYGSWGQGTQVTVSS	low polyreactivity
QVQLVESGGGLVQAGGSLRLSCAASGFTFYRYAMGWYRQAPGKERELVASISRNGGSTYYADTVKGRFTISRDTEKNTVYFLMNSLKPEDTAVYYCNTAFYPPTNFYWGQGTQVTVSS	high polyreactivity
QVQLVESGGGLVQAGGSLRLSCAASGFTFYRYAMGWYRQAPGKERELVATISASGGSTYYADSVKGRFTISRDNAKNTVYLQMNSVKPEDTAVYYFAVRYKSWYGFNYWGQGTQVTVSS	high polyreactivity
